Data published in paper doi:10.1101/091256 (bioRxiv, 2016).

Target: T1, release factor RF2 (E. coli (K12 strain), UniProt P07012 1-365)
T1 sequence: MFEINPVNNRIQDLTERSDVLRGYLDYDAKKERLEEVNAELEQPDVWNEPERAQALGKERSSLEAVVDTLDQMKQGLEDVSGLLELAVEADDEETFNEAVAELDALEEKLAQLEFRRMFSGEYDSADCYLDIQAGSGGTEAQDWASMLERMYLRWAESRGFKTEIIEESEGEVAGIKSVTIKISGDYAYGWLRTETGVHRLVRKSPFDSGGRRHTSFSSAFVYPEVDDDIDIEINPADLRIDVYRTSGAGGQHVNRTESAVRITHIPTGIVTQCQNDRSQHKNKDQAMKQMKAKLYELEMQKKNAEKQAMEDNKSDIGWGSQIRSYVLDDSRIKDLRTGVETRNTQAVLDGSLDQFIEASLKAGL
Experiment: cryo-EM structure

binding result: binds
B1: ArfA (alternative rescue factor A) (natural protein, E. coli, UniProt P36675 1-60, looked up)
chain: MSRYQHTKGQIKDNAIEALLHDPLFRQRVEKNKKGKGSYMRKGKHGNRGNWEASGKKVNH
